Experimental data as given in publication PMC12098294.

Assays:
[1] = biological target: CD19/NKG2DL tandem CAR with a short hinge (12 amino acids) derived from CD8α (UniProt P26718); assay: flow cytometry on cells; CAR-transduced primary T-cells incubated with rhMICA-Avi (detected with Alexa Fluor 647 streptavidin) and/or rhCD19-Fc (detected with anti-human IgG-Fc antibody); MFI read in a subpopulation expressing the CD34 marker at similar level; one ligand alone or both together
[2] = biological target: CD19/NKG2DL tandem CAR with a short hinge (12 amino acids) derived from IgG4 (UniProt P26718); assay: as above

B1: recombinant human Biotinylated Human MICA Protein, His,Avitag (ligand)
chain: EPHSLRYNLTVLSWDGSVQSGFLTEVHLDGQPFLRCDRQKCRAKPQGQWAEDVLGNKTWDRETRDLTGNGKDLRMTLAHIKDQKEGLHSLQEIRVCEIHEDNSTRSSQHFYYDGELFLSQNLETKEWTMPQSSRAQTLAMNVRNFLKEDAMKTKTHYHAMHADCLQELRRYLKSGVVLRRTVPPMVNVTRSEASEGNITVTCRASGFYPWNITLSWRQDGVSLSHDTQQWGDVLPDGNGTYQTWVATRICQGEEQRFTCYMEHSGNHSTHPVPSGKVLVLQSHW
modifications: biotin (biotinylated protein)
decrease of MICA binding against the NKG2DL single-targeting CAR [1]: 30%
decrease of MICA binding against the NKG2DL single-targeting CAR [2]: 30%
